The supplement of paper PMC9732359
± gives the uncertainty stated by the source.

Assay: protein stability index of a GFP-peptide fusion (yeast GPS) (PSI 1-4); higher = more stable; sorted into four equal gates, so the index is relative within each strain
Method in brief: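 Tiled 17-residue yeast protein peptides were fused downstream of GFP in a plasmid that also expresses Cherry, and the pooled library was carried in yeast. Mid-log cultures in leucine-free medium were sorted into four equal gates by GFP/Cherry fluorescence ratio, and plasmids from each gate were PCR-amplified and Illumina-sequenced, with reads assigned to strains by barcodes. The protein stability index for each peptide was each gate's read frequency times its gate number, summed.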

Sequence | protein stability index (doa10∆) | protein stability index (pdr5∆) | protein stability index (san1∆) | protein stability index (ubr1∆)
TTFTKVAAKWNTSLISL [PRP8] | 2.09 ± 0.052 | 2.39 ± 0.06 | 2.4 ± 0.082 | 2.06 ± 0.036
YMFANLEFSIYHRLSNK [CSN12] | 2.13 ± 0.072 | 2.15 ± 0.076 | 2.42 ± 0.11 | 2.25 ± 0.082
FNKYADPTLTTTTSFTT [RPN4] | 2.35 ± 0.035 | 2.57 ± 0.042 | 2.26 ± 0.04 | 2.48 ± 0.029
LNSLTNLLSKRNQEKKM [SNM1] | 2.89 ± 0.078 | 2.86 ± 0.074 | 2.69 ± 0.083 | 2.7 ± 0.063
RGVRPYKHIDASGSINR [RPS19A] | 3.23 ± 0.089 | 3.42 ± 0.1 | 3.1 ± 0.062 | 3.23 ± 0.091
ENMWPFSYQEVEFKLPK [CDC53] | 1.83 ± 0.048 | 2.19 ± 0.058 | 1.34 ± 0.076 | 2.47 ± 0.035
PPSKHSTLTLSDSEDSD [ESC2] | 3.01 ± 0.15 | 2.82 ± 0.14 | 2.59 ± 0.071 | 2.64 ± 0.19
ERSSKRLAKKPSMKKIK [SIR3] | 3.18 ± 0.08 | 3.12 ± 0.084 | 3.06 ± 0.057 | 3.06 ± 0.079
VVFDSNEAPPKTSLADW [YMR153W/NUP53] | 3.19 ± 0.06 | 3.28 ± 0.051 | 3.06 ± 0.073 | 3.33 ± 0.096
SYANHLEESDVEDTLHV [YOR098C/NUP1] | 2.98 ± 0.082 | 2.4 ± 0.065 | 2.13 ± 0.081 | 1.97 ± 0.051
ELGEKKNEKLKFQETLL [ISW2] | 2.86 ± 0.096 | 2.7 ± 0.1 | 2.85 ± 0.11 | 2.88 ± 0.12
PMLMANNDVFTIGPYRA [SSN3] | 3.04 ± 0.07 | 3.3 ± 0.082 | 3.13 ± 0.072 | 3.14 ± 0.058
VKLGNIWKESLIELSGG [SMC2] | 2.22 ± 0.18 | 2.24 ± 0.098 | 2.12 ± 0.14 | 2.19 ± 0.1
IGIVDYEAGASHGNPVV [FAS1] | 3.01 ± 0.068 | 2.99 ± 0.064 | 3.03 ± 0.063 | 3.19 ± 0.04
YDIDEIDHSDESNRQSV [ESC2] | 3.19 ± 0.14 | 3.35 ± 0.096 | 3.23 ± 0.13 | 3.84 ± 0.25
VVNQPTGKIVDVVGTLS [FAS1] | 3.1 ± 0.12 | 3.49 ± 0.12 | 3.49 ± 0.092 | 3.11 ± 0.061
AQLAKAKTELNEVSLAI [SMC2] | 3 ± 0.077 | 2.75 ± 0.074 | 1.82 ± 0.097 | 2.61 ± 0.046
YCDPNTQEIRPVNTGVL [RRP40] | 2.62 ± 0.055 | 2.89 ± 0.05 | 2.62 ± 0.052 | 2.76 ± 0.069
GEQIIVHPVNEREPVPL [RRP45] | 2.85 ± 0.12 | 3.35 ± 0.12 | – | 2.9 ± 0.17
QDGVLLVALSNEPAARL [FAS2] | 1.89 ± 0.063 | 1.9 ± 0.06 | 2.68 ± 0.09 | 1.46 ± 0.071
GTQQSNMYTSTQKTELE [SIR4] | 2.96 ± 0.049 | 3.12 ± 0.047 | 2.95 ± 0.048 | 3 ± 0.053
NVAHRIKEDIKKQPSIL [SNF2] | 2.9 ± 0.15 | 3.21 ± 0.14 | 3.05 ± 0.097 | 3.19 ± 0.12
AFLSKVPEFFQTANEKH [SRP14] | 3.21 ± 0.12 | 3.21 ± 0.17 | 3.37 ± 0.11 | 3.09 ± 0.26
TMQPPYIQERLKSLNDI [MED11] | 2.89 ± 0.086 | 2.86 ± 0.12 | 3.13 ± 0.068 | 2.82 ± 0.056
LIGCIPYSKNAVEQLAG [YDL088C/ASM4] | 3.08 ± 0.2 | 3.01 ± 0.14 | 2.94 ± 0.088 | 2.92 ± 0.27
LIQSTEFPSITSSVILG [YOR098C/NUP1] | 3.16 ± 0.12 | 3.44 ± 0.11 | 2.11 ± 0.13 | 3.17 ± 0.079

Sequence | protein stability index (doa10∆) | protein stability index (pdr5∆) | protein stability index (san1∆) | protein stability index (ubr1∆)
APQLFPYGSFHQQQLQQ [DSN1] | 2.77 ± 0.076 | 2.84 ± 0.09 | 2.77 ± 0.087 | 3.15 ± 0.069
RPLKLERGFACIPLVGI [FAS1] | 1.69 ± 0.067 | 1.73 ± 0.048 | 1.51 ± 0.092 | 1.69 ± 0.048
ELMKLDGTEYVLSSVRE [MED6] | 3.36 ± 0.083 | 3.27 ± 0.08 | 3.16 ± 0.048 | 3.15 ± 0.05
YAIKKKDELERVAKSNR [RPS5] | 3.41 ± 0.061 | 3.35 ± 0.073 | 3.44 ± 0.043 | 3.23 ± 0.068
ICIVGGYDDFQEEGSFE [FAS2] | 2.98 ± 0.16 | 2.5 ± 0.11 | 3.5 ± 0.1 | –
EGVEYSFLHVDDKLAYI [POP8] | 1.86 ± 0.097 | 2.1 ± 0.088 | 1.86 ± 0.11 | 2.04 ± 0.074
PLSDLKKRSQAKMNAKT [RPC82] | 3.21 ± 0.08 | 3.4 ± 0.081 | 3.05 ± 0.066 | 3.32 ± 0.045
MAAALPNPTPSMINSVS [PGD1] | 1.77 ± 0.05 | 2.3 ± 0.061 | 2.05 ± 0.052 | 2.1 ± 0.045
VLYQSNATHDEDEFIVQ [SWP82] | 3.05 ± 0.041 | 3.14 ± 0.038 | 3.11 ± 0.039 | 3.151 ± 0.028
MAPNTSRKQKIAKTFTV [RPL22A] | 2.15 ± 0.17 | 2.03 ± 0.089 | 2.61 ± 0.13 | 2.03 ± 0.092
HVFQYANRPRLVGRKPA [RPC37] | 2.86 ± 0.23 | – | 2.28 ± 0.28 | 2.69 ± 0.082
ETLSIFTNVPLNLEQVT [YJL039C/NUP192] | 2.33 ± 0.044 | 2.53 ± 0.049 | 2.33 ± 0.055 | 2.42 ± 0.044
GEIQLLFQRQKLHEFYL [IRR1] | 2.71 ± 0.12 | 2.96 ± 0.075 | 2.63 ± 0.061 | 2.9 ± 0.16
NFASGDNNTASNMLGSN [RPB3] | 3 ± 0.12 | 2.98 ± 0.089 | 3 ± 0.12 | 3.24 ± 0.21
REKNALKRLAWQYIVID [ISW2] | 2.1 ± 0.099 | 1.74 ± 0.14 | 1.76 ± 0.12 | 2.03 ± 0.082
TVRKSIACVLTVINEQQ [RPL35A] | 1.62 ± 0.077 | 2.07 ± 0.077 | 2.21 ± 0.079 | 2.11 ± 0.063
SKKIVPSPKKVAIDQDK [SIR4] | 2.73 ± 0.078 | 2.91 ± 0.066 | 2.59 ± 0.06 | 2.92 ± 0.057
KKNSSRPMPPIRGPKRR [SMD3] | 2.23 ± 0.043 | 1.86 ± 0.037 | 2.14 ± 0.055 | 2.81 ± 0.036
SNEIKVTNDLDTSAEKD [SIR4] | 3.29 ± 0.095 | 3.35 ± 0.062 | 3.26 ± 0.055 | 3.04 ± 0.055
ARRTLQKLGLDETYKGV [RPL5] | – | 2.97 ± 0.18 | 3.43 ± 0.14 | –
ETVPDNVKTSVSQLYRI [RPO31] | 2.92 ± 0.1 | 3.16 ± 0.13 | 3.21 ± 0.078 | 3.2 ± 0.069
TNHSAAASTPTTTATPH [PGD1] | 2.91 ± 0.033 | 3.026 ± 0.029 | 2.99 ± 0.027 | 2.939 ± 0.023
FQTIFSKQDLIHSLIPV [SIN4] | 1.93 ± 0.046 | 1.9 ± 0.064 | 1.66 ± 0.11 | 1.7 ± 0.05
PDIADIPRTFRTPVPST [SNF5] | 2.12 ± 0.093 | 1.96 ± 0.059 | 2.04 ± 0.064 | 2.01 ± 0.072
VTFSVMPPKKSWRNITN [SMC4] | 2 ± 0.11 | 2.45 ± 0.15 | 2.23 ± 0.19 | 2.82 ± 0.14
GDQFLRYVNLLGVTYSS [PRE4] | 2.27 ± 0.1 | 2.33 ± 0.062 | 2.1 ± 0.075 | 2.02 ± 0.042
